{"source": "a protein production outcome set (Wang et al. 2014)", "experiment": "label from the status in PepcDB records"}
{"sequence": "MSQFDRIHLVVLDSVGIGAAPDANDFVNAGVPDGASDTLGHISKTVGLAVPNMAKIGLGNIPRPQALKTVPAEENPSGYATKLQEVSLGKDTMTGHWEIMGLNITEPFDTFWNGFPEDIITKIEDFSGRKVIREANKPYSGTAVIDDFGPRQMETGELIIYTSADPVLQIAAHEDIIPLEELYRICEYARSITMERPALLGRIIARPYVGEPGNFTRTANRHDYAVSPFEDTVLNKLDQAGIDTYAVGKINDIFNGSGINHDMGHNKSNSHGIDTLIKTMGLSEFEKGFSFTNLVDFDALYGHRRDPHGYRDCLHEFDERLPEIISAMRDKDLLLITADHGNDPTYAGTDHTREYIPLLAYSPSFTGNGLIPVGHFADISATVADNFGVDTAMIGESFLQDLV", "values": [{"measurement": "protein production", "value": "failed"}]}
{"sequence": "MDKVFGRTQGLKKSELKRISNLYRRRLPKDRVLTPELAHTLAALSAEVGRPLSLVLDREGRVVRVAVGDAKDVPFPEEGWSERRLSGYRLLHTHLGPGGLSRPDLSVLFLRRLDNLAALEVEADGRPGLLHLAFLSPPRALEEDWRVLPPKPFHQYLDLDLWGEVMALEEELSRQARVLEVRDGSGERALLVGVDTGEGPEAEAVLRELAELTRTAGGVPVKQILVFRKSLDPRYLVGLGKLEELKSLAYHENASTLIFGVDLTPAQAREIERVTGLKVLDRTQLILDIFALHAKTPEAQAQVELAQLRYLLPRLVGKGKEMSRLGGGIGTRGPGETKLEVDRRRLQDRIAHLSRKLQDYALRRQEARQKRKRRGVPLVAVVGYTNAGKTTLLRALTRAGEEGEDKLFATLRPLTRRGFLPGVGEVLFTDTVGFIRHMPEELLTAFRATLEEVREADVLVHVLDASEEGALERHRVVRDLLLDLGVEAPVVLALNKADRAAPYDLYFLGERLGGVPVSALKGTGLKELKEALARALLDLGVRPQAWAQYT", "values": [{"measurement": "protein production", "value": "failed"}]}
{"sequence": "MLPDVFRADTGSRSLIQAQSDAQAVLTWLAEHADRPATLAAYRKEAERLLLWLAPRRQTLAQVKREDVLDYRRFLASPHPAEQWLGPARPRSHPDWKPFSKPLSPASVEHSLTVLGALFAYLNDAGYLNGNPFKLLRRRGARKSAQEIERFLDADCWRHLQATLNGLPRGSDREIRHAERALWLFTLLYLTGARRAEAAAARACDLARRNGNWWWHVVGKGGVSARIPLSDELMDALARYRLSLGLPPQPAADEDTPLVCRVGSKGQAKPLSDKAIYLVCKEVFGRAQAAAPNEDIRAKLRAASTHWLRHTAASHQLEAGVPLLLVSQNLRHASIQTTRRYLHSEEDARHEASRLHKLKRDS", "values": [{"measurement": "protein production", "value": "failed"}]}
{"sequence": "DDVTLLTVPGWGNSGDTHWHGYWEKTYPLARRAEQRDWLYPTRDEWVAGLAAAVAEIPGKLVIAAHSLGCHTTVAWLLQATLLEQRKVKGALLVAPPAIPLTDERARASGELPEGAPLPTFAGFETLPERKLPVPALLVASRDDPFCEFEEARRMAELWGAEFVDGGMAGHMGSHAGLGSWPAGQRLLQRLI", "values": [{"measurement": "protein production", "value": "failed"}]}
{"sequence": "MGEEAALDSFVKLEETLGEDEPCTARIIAPSSRAVLQSPTPPLPLKPHFLTNFPKYWSRPYLQAVPLHCQWERIPELVKQLSAKLIANDDMAELLLGESKLEQHLKEKPLRQGASPRGPRPQLTEVRKHLTAALDRGNLKSEFLQESNLVMAKLNYVEGDYKEALNIYARVGLDDLPLMAVPPYRLRMIAEAYATKGLCLEKLPVSSSTSNLHVDREQDVITCYEKAGDIALLYLQEIERVILTNIQNRSPKPGPAPHDQELGFFLETGLQRAHVLYFKNGNLTRGVGRFRELLRAVETRTTQNLRMTIARQLAEILLRGMCEQSYWNPLEEPPCQSPLDDPLRKGANTKTYTLPRRARVYSGENIFCPQENTEEALLLLLISESMANRDAVLSRIPEHKSDRLISLQSASVVYDLLTIALGRRGQYEMLSECLERAMKFAFEEFHLWYQFALSLMAAGKSARAVKVLKECIRLKPDDATIPLLAAKLCVGSLHWLEEAEKFAKTVVDVGEKTSEFKAKGYLALGLTYSLQATDASLRGMQEVLQRKALLALQRAHSLSPTDHQAAFYLALQLAISRQIPEALGYVRQALQLQGDDANSLHLLALLLSAQKHHHDALNIIDMALSEYPENFILLFSKVKLESLCRGPDEALLTCKHMLQIWKSCYNLTNPSDSGRGSSLLDRTIADRRQLNTITLPDFSDPETGSVHATSVAASRVEQALSEVASSLQSSAPKQGPLHPWMTLAQIWLHAAEVYIGIGKPAEATACTQEAANLFPMSHNVLYMRGQVAELRGNFDEARRWYEEALSISPTHVKSMQRLALVLHQLGRYSLAEKILRDAVQVNSTAHEVWNGLGEVLQAQGNDAAATECFLTALELEASSPAVPFTVIPRVL", "values": [{"measurement": "protein production", "value": "failed"}]}
{"sequence": "MVVIDPTLLGILACPQDKGPLLLVGDELLYNPRLRRAYPIENGIPVLLIDEARDVGADEHETLLARAAGEA", "values": [{"measurement": "protein production", "value": "not failed"}]}
{"sequence": "MKIGIIGATGRAGSRILEEAKNRGHEVTAIVRNAGKITQTHKDINILQKDIFDLTLSDLSDQNVVVDAYGVSPDEAEKHVTSLDHLISVLNGTVSPRLLVVGGAASLQIDEDGNTLLESKGLREAPYYPTARAQAKQLEHLRSHQAEFSWTYISPSAMFEPGERTGDYQIGKDHLLFGSDGNSFISMEDYAIAVLDEIERPNHLNERFTVAGK", "values": [{"measurement": "protein production", "value": "failed"}]}
{"sequence": "MELNISESRSRSIRCIVKLGGAAITCKNELEKIHDENLEVVACQLRQAMLEGSAPSKVIGMDWSKRPGSSEISCDVDDIGDQKSSEFSKFVVVHGAGSFGHFQASRSGVHKGGLEKPIVKAGFVATRISVTNLNLEIVRALAREGIPTIGMSPFSCGWSTSKRDVASADLATVAKTIDSGFVPVLHGDAVLDNILGCTILSGDVIIRHLADHLKPEYVVFLTDVLGVYDRPPSPSEPDAVLLKEIAVGEDGSWKVVNPLLEHTDKKVDYSVAAHDTTGGMETKISEAAMIAKLGVDVYIVKAATTHSQRALNGDLRDSVPEDWLGTIIRFSK", "values": [{"measurement": "protein production", "value": "failed"}]}
{"sequence": "MFRGVAPPPERSSTPLPPTMTTTPEPGAALLLLIVSQLPGIGPSRARALLNRFGATPALLEADYDALRQIPGIGETTARETAERLANPAWRDKAREKGENQLARAERLEASVITILDPAYPPLLKEIYDPPLLLFARGNPEALCVPSLAVVGTRKATAYGKQATEFICREMVNNGYAILSGLAYGIDMMAHRAAVESNGVTIAVLGCGIDRIYTDPAGRLWPRILERGAIVSEEWIGIKPEPGNFPRRNRLIAGLAQGTLIVESDIKGGSMITASYALEQNREVFAIPGSIFSGTSRGTNYLIQQNHAKPVFSAEDILAELNPAQHPALKTHPEASEPFDLNIEESCIVEALQSGAMHIDLIAEKTGLKIDALLVHLFELELKRIIEQEPGQIFRKRTP", "values": [{"measurement": "protein production", "value": "failed"}]}
{"sequence": "MPTKTLRIPTTDGQADAFAAFPDHSERYPGVLMYADGFGIRPVLREMALELAGHGYYVLVPNSFYRHGPAPLVELPEYIGEGIRPAVFAQLMPLIEAHTAERVLSDADAYLRFLTTQPEVGAGPVAVTGYCIGGLYAMRTAAAHPDQVAAVAAFHGPVGVDGANLFSKLTAQVHLGHAEGDMTPEALGELNQALDAAGVGYTSEIYPGTIHGFTMSDTDAYSAFGLKRHWDRLLPLLDRTL", "values": [{"measurement": "protein production", "value": "failed"}]}
{"sequence": "MVTQNKLKKLVLGLSLIAASSAAMATTDTAKPNILAIWGDDIGPFNISAYNRGIMGYKTPNIDRIANEGIIFTDSYGDQSCTAGRAGFITGQHPMRTGLTKVGLPGAKEGLNKKDPTIAELLKPHGYMTGQFGKNHLGDQDEHLPTNHGFDEFFGNLYHLNAEDEPEHPDYPKDPAFKKRFGPRGAIHSFADGKITDTGPVTKKRMETIDEEFLGAALKFIDKAHAAKKPFFVWFNSTRMHVWTRLKPESDGVTGQGLYADGMVEHDGHVGQLLDKIDKLGIAENTIIMYTTDNGAELALWPDGGYTPFRGEKNTNWEGGYRVPMMVKWAGKIKPNQVSNEMISLIDWMPTILAVAGDTNIKSKLKKGTNVGGTKFKVHLDGYNFLPHFLDTTKEGPRKEFIYSSDTGDIVGLRYEDYKFVFKEQRAHGLEVWQNPWTTLRAPKIFNLRMDPYERMDHESEGYGQWWAEHMFLMAPAMMKVAQFKATFKEFPQRQKPGSFVP", "values": [{"measurement": "protein production", "value": "failed"}]}
{"sequence": "MSLDCRVRESIQEEAKGIVAPPELKEKVIVQIKMNQGGRKRKKRLIAGVLAAAFLIPTTGFAYQSIMADGIYGSFENLKKHAGTMTLEAYMRFSAKLSEAKDEMGTKEYEVFTKELKKLTNAKLAYGDSNGNIDYDALSSEKREEMKKVSMGLQPYFDKLNGHKSSKEVLTQEEFDRYMEALMTHEIVRVKTKSTGAIKVEEIPEAYKERFIKAEQFMEYVDEKVR", "values": [{"measurement": "protein production", "value": "not failed"}]}
{"sequence": "MAVGDQTEQNYLPKKKKSETEDDKRRKKIVPGSLLKAVVRPGGGDSSPVDGDQVIYHCTVRTLDGVVVESTRSESGGRGVPIRDVLGNSKMILGLLEGIPTMHKGEIAMFKMKPEMHYAEIDCPVSAPENFPKDDELHFEIELLDFSKAKIASDDLGVIKKILNEGEGWESPREPYEVKARISAKSGDGHVIFSHTEEPYFFTFGKSEVPKGLEIGIGTMARKEKAVIYVRKQYLTESPLLHIDQDLEEVHFEVELVHFIQVRDMLGDGRLIKRRIRDGRGEFPMDCPLQDSRLSVHYKGMLLNEEKTVFYDSKIDNNDQPLEFSSGEGLVPEGFEMCTRLMLPGEIALVTCPPDYAYDKFPRPPGVSEGAHVQWEIELLGFETPRDWTGLNFQSIMDEADKIRSTGNRLFKEGKFELAKAKYEKVLREFNHVNPQDEDEGKIFGDTRNMLHLNVAACLLKMGEWRKSIETCNKVLEAKPGHVKGLYRRGMAYIAGGEYDDARNDFNMMIKVDKSSEADATAALLKLKQKEQEAESKARKQFKGLFDKRPGEITEVGSEIREESKTIEEVDETKDNDDDETLEEEGATTVSTERKRKWSEKAWPFLKNVMLQIGIQLGVVLIGILIFQFVSAKFT", "values": [{"measurement": "protein production", "value": "failed"}]}
{"sequence": "MTASDQFNSTHSAVDQYAELVLHNGRMYTLDPAQPWADAVAIRQGKLIAVGSLASLASLIGPNTRQHDLDGAFCMPGLHDMHTHPDLALAPRYADDLDVGIEDPTPEQLAAAIHAYADSHPGDGWIYGQYWVRYTFREAGLTPGREWLDSVMPHRPVALLDRMWGTMMVNSKALELAGIDRHTSDPRNGYLERDELTGEPNGLLIDGAYALIHAAMPPTPVSVLRRAYRDGVHFQTSRGVTATKYVHVCENRLQALKELDDAGELTLRVEAAISWQDDIFPVRRRWELLSGERHFYRSARLSANAVKFHFDGTVEPKSSYLLTPWPEESSWRGKLNLTPEHITDMVVDMDKRGLRVIAHCTGDGASDVFLDAVAEARRRNGNSGIRHQCAHSTLLHPGNLKRFQALDVIAEFSPAAWYPTPFASGARSGYGQERLKRIYDFKGVLAAGGIAVFGTDWPVASIDPWLALETMVTRQNPWNQEPDTFGDPISLEQALQVATLNGAHAMGLEHLTGSLEAGKSADLIVLDRDLFAQGARNYIHHTQVQLTFVEGQLVYDRQGTFSDTPLQAVWEGLPPVIEGKE", "values": [{"measurement": "protein production", "value": "failed"}]}
{"sequence": "MPGKLTATILTRNEAANIGDCIDSLAQLADEVIVLDSGSTDATRDIARARGANVIEDDGPWPGFGPQKNRALDRATGEWVLSIDADERVPPELAQEIRTAMARADADAYAIPRLSQFCGAWVHHSGWRPDHVIRLFRRGKARFSENLVHESLQVTGNVARLRTSLLHYSYTSMDQVHRKSAQYAEAGARDLTQRGKHIGALSPVLHGTWAFVRTLVLRRGFLDGGTGLAIARMNATVSYRKYRRARELASGANHRPLEHHHHHH", "values": [{"measurement": "protein production", "value": "failed"}]}
{"sequence": "MGYRNLQDCVFDLEARGDLVRIDVETDPNIEIGAIQRRVYQAGGPALLFTRVKGCRFPMLGNLFGTMARTKFIFRDTLDDIRRLVELKINPTAVLKNPKEYAGAPLAALRLLPRQVSRGPILGHRTTIAELPQLKSWPMDGGPFVTLPQVYSESPKRPGFRFSNLGMYRVQLAGNDYRLNEEVGVHYQIHRGIGVHHAEAIERGEPLRVNIFVGGAPSMTVAAVMPLPEGLPELSFAGLLAGHRLAMVCRRGELPMPAEADFVITGTIDPNKTLPEGPFGDHLGYYSLAHPFPVLRVENVWHRDDAIWPFTSVGRPPQEDTTFGAFIHELTGALIPEVLPGVKGVHAVDAAGVHPLLLAVGSERYVPYEAERVPRELLTIASAILGNGQLSLAKYLFITPNEDNPPDIHHIDEFLTFILERADWRRDLHFHTRTTIDTLDYSGSGLNEGSKVIVAAAGPKRRDLPTEVPGGLRLPDGFTTPHVCLPGILAVTGPAFPGYGDNGAPDMERFCASFAPDDPINRFPLVVIVDDSAFTSRTLNNFLWVTFTRSNPAADIHGIGSSVRCKHWGCGGALVIDARVKPHHAPPLLDVPEIERRVDALGAPGGPLRGII", "values": [{"measurement": "protein production", "value": "failed"}]}
